According to patent US20230220589A1:

Assays:
[1] = biological target: M44-modified E NTAA target peptides; test: encoding assay; P2 H;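 also: fraction of recording tags encoded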
[2] = biological target: M44-modified S NTAA target peptides; test: encoding assay; P2 H
[3] = biological target: M44-modified G NTAA target peptides (M44-G-P2-peptide); test: encoding assay; P2 H;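 also: fraction of recording tags encoded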
[4] = biological target: M44-modified E NTAA target peptides; test: encoding assay; P2 W;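 also: fraction of recording tags encoded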
[5] = biological target: M44-modified P NTAA target peptides; test: encoding assay; P2 Q;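 also: fraction of recording tags encoded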
[6] = biological target: M44-modified W NTAA target peptides; test: encoding assay; P2 Q;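 also: fraction of recording tags encoded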
[7] = biological target: M44-modified G NTAA target peptides (M44-G-P2-peptide); test: encoding assay; P2 Q;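 also: fraction of recording tags encoded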
[8] = biological target: M44-modified L NTAA target peptides (M44-L-P2-peptide); test: Gini coefficient of P2 tolerance from multiplex encoding heatmap
[9] = biological target: M17-modified Y NTAA target peptides (M17-Y-P2-peptide); test: encoding assay; P2 H;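 also: fraction of recording tags encoded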
[10] = biological target: M17-modified Q NTAA target peptides; test: encoding assay; P2 H;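 also: fraction of recording tags encoded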
[11] = biological target: M17-modified N NTAA target peptides; test: encoding assay; P2 H;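 also: fraction of recording tags encoded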
[12] = biological target: M17-modified S NTAA target peptides; test: encoding assay; P2 H;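 also: fraction of recording tags encoded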
[13] = biological target: M17-modified T NTAA target peptides; test: encoding assay; P2 H;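 also: fraction of recording tags encoded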
[14] = biological target: M17-modified D NTAA target peptides; test: encoding assay; P2 H;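 also: fraction of recording tags encoded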
[15] = biological target: M17-modified V NTAA target peptides; test: encoding assay; P2 H;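 also: fraction of recording tags encoded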
[16] = biological target: M17-modified H NTAA target peptides; test: encoding assay; P2 H;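 also: fraction of recording tags encoded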
[17] = biological target: M17-modified F NTAA target peptides; test: encoding assay; P2 H;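 also: fraction of recording tags encoded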
[18] = biological target: M17-modified I NTAA target peptides; test: encoding assay; P2 H;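 also: fraction of recording tags encoded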
[19] = biological target: M17-modified G NTAA target peptides; test: encoding assay; P2 H;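 also: fraction of recording tags encoded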
[20] = biological target: M17-modified P NTAA target peptides; test: encoding assay; P2 H;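 also: fraction of recording tags encoded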
[21] = biological target: M17-modified W NTAA target peptides; test: encoding assay; P2 H;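 also: fraction of recording tags encoded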
[22] = biological target: M17-modified L NTAA target peptides; test: encoding assay; P2 H;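 also: fraction of recording tags encoded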
[23] = biological target: M17-modified E NTAA target peptides; test: encoding assay; P2 H;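 also: fraction of recording tags encoded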
[24] = biological target: M17-modified A NTAA target peptides; test: encoding assay; P2 H;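 also: fraction of recording tags encoded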
[25] = biological target: M17-modified M NTAA target peptides; test: encoding assay; P2 H;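 also: fraction of recording tags encoded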
[26] = biological target: M17-modified Y NTAA target peptides (M17-Y-P2-peptide); test: encoding assay; P2 W;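 also: fraction of recording tags encoded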
[27] = biological target: M17-modified Q NTAA target peptides; test: encoding assay; P2 W;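 also: fraction of recording tags encoded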
[28] = biological target: M17-modified N NTAA target peptides; test: encoding assay; P2 W;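 also: fraction of recording tags encoded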
[29] = biological target: M17-modified S NTAA target peptides; test: encoding assay; P2 W;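 also: fraction of recording tags encoded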
[30] = biological target: M17-modified T NTAA target peptides; test: encoding assay; P2 W;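 also: fraction of recording tags encoded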
[31] = biological target: M17-modified D NTAA target peptides; test: encoding assay; P2 W;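 also: fraction of recording tags encoded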
[32] = biological target: M17-modified V NTAA target peptides; test: encoding assay; P2 W;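 also: fraction of recording tags encoded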
[33] = biological target: M17-modified H NTAA target peptides; test: encoding assay; P2 W;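 also: fraction of recording tags encoded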
[34] = biological target: M17-modified F NTAA target peptides; test: encoding assay; P2 W;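 also: fraction of recording tags encoded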
[35] = biological target: M17-modified I NTAA target peptides; test: encoding assay; P2 W;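 also: fraction of recording tags encoded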
[36] = biological target: M17-modified G NTAA target peptides; test: encoding assay; P2 W;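 also: fraction of recording tags encoded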
[37] = biological target: M17-modified P NTAA target peptides; test: encoding assay; P2 W;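 also: fraction of recording tags encoded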
[38] = biological target: M17-modified W NTAA target peptides; test: encoding assay; P2 W;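 also: fraction of recording tags encoded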
[39] = biological target: M17-modified L NTAA target peptides; test: encoding assay; P2 W;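 also: fraction of recording tags encoded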
[40] = biological target: M17-modified E NTAA target peptides; test: encoding assay; P2 W;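 also: fraction of recording tags encoded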
[41] = biological target: M17-modified A NTAA target peptides; test: encoding assay; P2 W;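 also: fraction of recording tags encoded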
[42] = biological target: M17-modified M NTAA target peptides; test: encoding assay; P2 W;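 also: fraction of recording tags encoded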
[43] = biological target: M17-modified Y NTAA target peptides (M17-Y-P2-peptide); test: encoding assay; P2 Q;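 also: fraction of recording tags encoded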
[44] = biological target: M17-modified T NTAA target peptides; test: encoding assay; P2 Q;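 also: fraction of recording tags encoded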
[45] = biological target: M17-modified D NTAA target peptides; test: encoding assay; P2 Q;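 also: fraction of recording tags encoded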
[46] = biological target: M17-modified V NTAA target peptides; test: encoding assay; P2 Q;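 also: fraction of recording tags encoded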
[47] = biological target: M17-modified H NTAA target peptides; test: encoding assay; P2 Q;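 also: fraction of recording tags encoded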
[48] = biological target: M17-modified F NTAA target peptides; test: encoding assay; P2 Q;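 also: fraction of recording tags encoded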
[49] = biological target: M17-modified I NTAA target peptides; test: encoding assay; P2 Q;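 also: fraction of recording tags encoded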
[50] = biological target: M17-modified G NTAA target peptides; test: encoding assay; P2 Q;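 also: fraction of recording tags encoded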
[51] = biological target: M17-modified W NTAA target peptides; test: encoding assay; P2 Q;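 also: fraction of recording tags encoded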
[52] = biological target: M17-modified T NTAA target peptides; test: encoding assay; P2 V;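 also: fraction of recording tags encoded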
[53] = biological target: M17-modified Y NTAA target peptides (M17-Y-P2-peptide); test: Gini coefficient of P2 tolerance from multiplex encoding heatmap

B1: engineered M44-L binder (SEQ ID NO: 31) (designed binder, not shown: small tags and cut ends; large carriers)
chain: QDSTQNLIPAPPLISVPLQPGFWTERFQGRWFLVGFAGNAVQKERQSRLTMQSLILELQEDNSYNITAINVRGQGCRYIISTLVPSSRPGQFTLGNIHSYPQIQSLDVQVADTDYDQFAMVFLQGTSENKQYFEVALAGRTKGLSDELKERFVSFAKSLGLKDNNIVFSVPTDQCIDN
With B1 the encoding yield [1] was 0.02, the encoding yield [2] was 0.01 and the encoding yield [3] was 0.01. It also gave an encoding yield [4] of 0.01, an encoding yield [5] of 0.01 and an encoding yield [6] of 0.02. The encoding yield [7] was 0.01 and the P2 score [8] was 0.331.

B2: engineered M17-Y binder (SEQ ID NO: 61) (designed binder, not shown: small tags and cut ends; large carriers)
chain: TVPDRSEIAGKWYVVALASNTEFYLREKDWVKSAMARISFLGEDELKVSSAVPSPNGCYKVERTWKKTSDDGEVYNSRAAKLKVEVLDTDYKSYAVIYATRVKDGRTDHQMILYSRSPEVSPAATAIFRKLAGERNYTDEMVAMLPRQEECTVDEV
Work on B2 yielded an encoding yield [9] of 0.07, an encoding yield [10] of 0.02 and an encoding yield [11] of 0.03. The encoding yield [12] was 0.01, the encoding yield [13] was 0.02 and the encoding yield [14] was 0.02. It also gave an encoding yield [15] of 0.03, an encoding yield [16] of 0.03 and an encoding yield [17] of 0.02. It also gave an encoding yield [18] of 0.03, an encoding yield [19] of 0.01 and an encoding yield [20] of 0.03. It also gave an encoding yield [21] of 0.02, an encoding yield [22] of 0.02 and an encoding yield [23] of 0.01. The encoding yield [24] was 0.02, the encoding yield [25] was 0.02 and the encoding yield [26] was 0.12. For the same binder, the encoding yield [27] was 0.02, the encoding yield [28] was 0.02 and the encoding yield [29] was 0.02. For the same binder, the encoding yield [30] was 0.01, the encoding yield [31] was 0.02 and the encoding yield [32] was 0.05. For the same binder, the encoding yield [33] was 0.02, the encoding yield [34] was 0.14 and the encoding yield [35] was 0.11. It also gave an encoding yield [36] of 0.01, an encoding yield [37] of 0.03 and an encoding yield [38] of 0.04. The encoding yield [39] was 0.03, the encoding yield [40] was 0.01 and the encoding yield [41] was 0.02. For the same binder, the encoding yield [42] was 0.02, the encoding yield [43] was 0.03 and the encoding yield [44] was 0.01. It also gave an encoding yield [45] of 0.01, an encoding yield [46] of 0.03 and an encoding yield [47] of 0.04. It also gave an encoding yield [48] of 0.04, an encoding yield [49] of 0.02 and an encoding yield [50] of 0.02. It also gave an encoding yield [51] of 0.01, an encoding yield [52] of 0.03 and a P2 score [53] of 0.225.

B3: upgraded binder after additional maturation round (SEQ ID NO: 62) (designed binder, not shown: small tags and cut ends; large carriers)
chain: TVPDRSEIAGKWYVVALASNTEFYLRGKDRVKSAMVRISFQGEDELKVSSAVPSPNGCYKVERTWKKTSDDGEVYNSRAAKLKVEVLDTDYKSYAVIYATRVKDRRTDHQMILYSRSPDVSPAATAIFRKLAGERNYTDEMVAMLPRQEECTVDEV
Binder B3 has an encoding yield [9] of 0.07, an encoding yield [10] of 0.03 and an encoding yield [11] of 0.03. It also gave an encoding yield [12] of 0.02, an encoding yield [13] of 0.03 and an encoding yield [14] of 0.03. It also gave an encoding yield [15] of 0.02, an encoding yield [16] of 0.02 and an encoding yield [17] of 0.02. It also gave an encoding yield [18] of 0.03, an encoding yield [19] of 0.02 and an encoding yield [20] of 0.04. For the same binder, the encoding yield [21] was 0.03, the encoding yield [22] was 0.02 and the encoding yield [23] was 0.02. It also gave an encoding yield [24] of 0.03, an encoding yield [25] of 0.03 and an encoding yield [26] of 0.19. For the same binder, the encoding yield [27] was 0.03, the encoding yield [28] was 0.04 and the encoding yield [29] was 0.06. For the same binder, the encoding yield [30] was 0.03, the encoding yield [31] was 0.04 and the encoding yield [32] was 0.07. The encoding yield [33] was 0.04, the encoding yield [34] was 0.18 and the encoding yield [35] was 0.14. It also gave an encoding yield [36] of 0.02, an encoding yield [37] of 0.03 and an encoding yield [38] of 0.1. It also gave an encoding yield [39] of 0.03, an encoding yield [40] of 0.01 and an encoding yield [41] of 0.04. It also gave an encoding yield [42] of 0.04, an encoding yield [43] of 0.15 and an encoding yield [44] of 0.02. For the same binder, the encoding yield [45] was 0.02, the encoding yield [46] was 0.04 and the encoding yield [47] was 0.03. The encoding yield [48] was 0.04, the encoding yield [49] was 0.03 and the encoding yield [50] was 0.01. It also gave an encoding yield [51] of 0.02, an encoding yield [52] of 0.04 and a P2 score [53] of 0.128.

B4: engineered M44-L binder (SEQ ID NO: 21) (designed binder, not shown: small tags and cut ends; large carriers)
chain: QVSVQPNFQQDKFLGRWFYAGHASNSSWYREKVAALSMAKLVVAPATDGGLNATETFLRKNQCETITSLLQPAGSLGSYSSRSPHGGSTWSTSVVETDYDQYALLYLQGSKGPGEDFRGAILASRTQTPRAELKEKFTAFSKAQGFTEDTIVFLPQTDKCMTEQ
In the case of B4, the P2 score [8] is reported as 0.408.

B5: engineered M44-A binder (SEQ ID NO: 42) (designed binder, not shown: small tags and cut ends; large carriers)
chain: QVSVQPNFQQDKFLGRWFVAGLASNSSWDREKVAALSGAKMVVAPATDGGLNVTRTMLRKNQCETYTGLLQPAGSLGSYSWRSPHPGSTGSESVVETDYDQYALVYGQGSKGPGEDLRAAALWSRTQTPRAELKEKFTAFSKAQGFTEDTIVFLPQTDKCMTEQ
Work on B5 yielded an encoding yield [1] of 0.03, an encoding yield [2] of 0.01 and an encoding yield [3] of 0.01. For the same binder, the encoding yield [4] was 0.02, the encoding yield [5] was 0.01 and the encoding yield [6] was 0.02. The encoding yield [7] was 0.01.
